Measurements: the nanobody polyreactivity screen of Harvey et al. (2022)

assay: yeast display, Sf9 membrane polyspecificity reagent, FACS + sequencing; frameworks hold sequencing errors
Method in brief: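 Polyreactivity labels are assigned by the sorting gate from which each nanobody was recovered. The gates were low and high (top ~1%), set on anti-HA fluorescence for expression and streptavidin fluorescence for reagent binding. Before sorting, galactose-induced (36–48 hours) yeast display cells were stained for 1 hour at 4 °C with 10% biotinylated, detergent-solubilized Sf9 membrane reagent.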

Sequence	polyreactivity (PSR sort gate)
QVQLVESGGGLVQAGGSLRLSCAASGFIFSRYGMGWYRQAPGKERELVAAISRSGGSTYYADSVKGRFTISRDNAKNTVYLQMNSLKPEDTAVYYCATAYSWRNADRFAYSYDYWGQGTQVTVSS	low polyreactivity
QVQLVESGGGLVQAGGSLRLSCAASGFIFRRYAMGWYRPAPGKERELVAAITGGGGSTYYADSVKGRFTISRDNAKNTVYLQMNSLKPEDSAVYYCAASQARNYKIYDYWGQGTQVTVSS	high polyreactivity
QVQLVESGGGLVQAGGSLRLSSAGSGFTFYKNAMGWYRQAPGKERELVAAITSSGGSTYYADSVKGRFTISRDNEKNTVYLQMNSLKPEDTAVYYCNKVYSKHYGYWGQGSQVTVSS	high polyreactivity
QVQLVESGGGLVQAGGSLRLSCAASGFTFNSYAMGWYRQAPGKERELVAAISWSGGSTYYADSVKGRFTISRDNAKNTVYLQMNSLKPEDTAVYYCNRDGLSRPYYYWGQGTQVTLSS	high polyreactivity
QVQLVESGGGLVQAGGSLRLSCAASGRIFPHNAMGWYRQAPGKERELVAAIRFSGGNTYYADSVKGRFTISRDNAKNTVYLQLNSLKPEDTAVYYCFVYGYVPYNYWGQGTQVTVSS	low polyreactivity
QVQLVKSGGGLVQAGGSLRLSCAASGRTFWGYAMGWYRQAPGKERELVAAISSGGDTTYADSVKGRCTISRDNAKNTVYLQMNSLKPEDTAVYYCAADRWIPVYILGADGYDYWGQGTHVTVSS	low polyreactivity
QVQLVESGGGLVQAGGSLRLSCAASGSTFRTYTMGWYRQAPGKERELVAAGGGTYYADSVKGRFTISRDNAKNTVYLQMNSLKPEDTAVYYCAAGLPIHGLRGYEYDYWGQGTQVTVSS	low polyreactivity
QVQLVESGGGLVQAGGSLRLSCAASGFIFPTYAMGWYRQAPGKERELVATITSAVRTKYADSVKGRFTISRDNAKNTVYLQMNSLKPEDTAVYYSAAAYTVARFYRYYYWGQGTQVTVSS	high polyreactivity
QVQLVESGGGLVQAGGSLRLSCAASGRTFYTYTMGWYRQAPGKERELVAAISKSGTSTYYADSVKGRFTISRDNAKNTVYLQMNSLKPEDTAVYYCAARAYYARFLMGYWGQGTQVTVSS	high polyreactivity
QVQLVESGGGLVQAGGSLRISCAASGSTFGGYVLGWYRPAPGKERELVAAISRSGASTYYADSVKGRFTISRDNAKNTVYLQMNSLKPEDTAVYYCAAYQARGLDYWGQGTQVTVSS	high polyreactivity
QVQLVESGGGLVQAGGSLRLSCAASGSIFDIYAMGWYRQAPGKERELVAAISLSAGSTYYADSVKGRFTISRDNAKNTVYLQMNSLKPEDTAVYYCAKDFFEHSPVSHTYSSSKYDYWGQGTQVTVSS	low polyreactivity
QFQHVESGGGLVQAGGSLRLSCAASGRTFGPYAMGCYIQAPGKERELVAAISSGGRTYYADSVKGRFTISRDNAKNTVYFQMNSLKPEDTAVYYCAATYGPSRYRYDYWGQGTQVTVSS	high polyreactivity
QVQLVESGGGLVQAGGSLRLSCAASGFTFTPYAMGWYRQAPGKERELVAAITSTGGSTYYADSVKGRFTISRHNAKNTVYLQMNSLKPEDAAVYYCNAATPYSWGYRRGYWGQGTQVTVSS	high polyreactivity
QVQLVESGGGLVQAGGSLRLSCAASGFTFDGYAMGWDRQAPGKESELVAAISDSGDSTYYADSVKGRFTISRDNAKNTVYLQMNSLTPEDTAVYYCAAGLGYYWSDYFADDSCGQGTQVTVSS	low polyreactivity
QVQLVESGGGLVQAGGSLRLSCAASGRIFSRYAMGLYRQAPGKERELVAAISWSGGSTYYADSVKGRFTISRDNAKNTVYLQMNSLNTEDTAVYYCAPPIKGSDSKYGYWGQCTQVTVSS	high polyreactivity
QVQLVESGGGLVQAGGSLRLSCAASGRTFRYYAMGWYRQARGKERELVAAISKTGGSTYYADSVKGRFTISRDNAKNTVYLQMNSQKPEDTAVYYCAAQSGWGYSTFYYWGQGTQVTVSS	high polyreactivity
QVQLVESGGGLVQAGGSLRLSCAASGSTFHYYAMGWYRQAPGKERELVAAISYRGSTYYADSVKGRFTISRDNAKNTVYLQMNSLKPEDTAVYYCAVVSSRGRRIYGYWGQGTQVTVSS	high polyreactivity
